Assay results as given in PMC3871196 (Experimental eye research, 2011).

Molecular target: purified Ca/CaM from bovine brain (bovine, UniProt P62157 1-149)
Test: fluorescence polarisation

ETWKAFLESVKKLGKG [PP-C peptide]
Kd: 190 nM
